Experimental data: patent publication US20240293499A1

Assays:
[1] = molecular target: hVISTA-COMP-his, pentameric form comprising the extracellular IgV domain of human VISTA (human) (UniProt Q9H7M9); test: SPR (BIAcore T200), single-cycle kinetics, hVISTA-COMP-his captured on anti-His chip, mAb injected at 20, 40, 80, 160, 320 nM, 1:1 fit
[2] = molecular target: T1, mVISTA-COMP-his, pentameric form comprising the extracellular IgV domain of murine VISTA (mouse) (UniProt Q9D659); test: SPR (BIAcore T200), single-cycle kinetics, mVISTA-COMP-his captured on anti-His chip, mAb injected at 20, 40, 80, 160, 320 nM, 1:1 fit
T1 sequence (Q9D659 whole entry, looked up): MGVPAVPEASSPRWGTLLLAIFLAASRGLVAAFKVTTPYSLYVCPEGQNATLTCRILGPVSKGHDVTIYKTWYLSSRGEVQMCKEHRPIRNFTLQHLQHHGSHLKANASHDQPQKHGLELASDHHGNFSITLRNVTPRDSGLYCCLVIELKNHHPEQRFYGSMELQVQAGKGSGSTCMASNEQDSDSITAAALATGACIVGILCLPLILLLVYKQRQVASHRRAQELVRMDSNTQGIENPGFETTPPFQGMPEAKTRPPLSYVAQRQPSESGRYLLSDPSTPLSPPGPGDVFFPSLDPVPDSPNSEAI

[3] = molecular target: T1, mVISTA-COMP-his, pentameric form comprising the extracellular IgV domain of murine VISTA (mouse); test: SPR (BIAcore T200), single-cycle kinetics; mVISTA-COMP-his captured on anti-His chip, mAb as analyte; 1:1 Langmuir fit
[4] = molecular target: hVISTA-COMP-his, pentameric form comprising the extracellular IgV domain of human VISTA (human) (UniProt Q9H7M9); test: SPR (BIAcore T200), single-cycle kinetics; hVISTA-COMP-his captured on anti-His chip, mAb as analyte; 1:1 Langmuir fit
[5] = molecular target: T2, murine VISTA on mouse splenocytes (macrophages, neutrophils, CD4+ T cells) (mouse) (UniProt Q9D659); test: cell-based or functional assay
T2 sequence (looked up): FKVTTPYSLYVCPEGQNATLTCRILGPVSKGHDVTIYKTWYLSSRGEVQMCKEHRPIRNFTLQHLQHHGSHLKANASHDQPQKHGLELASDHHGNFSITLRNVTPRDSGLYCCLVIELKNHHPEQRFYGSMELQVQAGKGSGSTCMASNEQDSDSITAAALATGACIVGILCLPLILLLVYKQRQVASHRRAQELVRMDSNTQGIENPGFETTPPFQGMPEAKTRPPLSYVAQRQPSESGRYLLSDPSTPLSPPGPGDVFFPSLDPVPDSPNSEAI

Chain of hVISTA-COMP-his, pentameric form comprising the extracellular IgV domain of human VISTA (human) (Q9H7M9 33-194): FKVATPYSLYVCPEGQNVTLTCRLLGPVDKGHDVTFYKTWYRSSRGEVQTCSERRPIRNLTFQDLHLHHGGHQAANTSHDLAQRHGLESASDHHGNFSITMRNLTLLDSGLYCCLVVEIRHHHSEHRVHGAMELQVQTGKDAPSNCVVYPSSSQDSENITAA

B1: rat anti-hmVISTA mAb 7C6 (antibody, part only; not given: light chain, rat IgG2a, V domains shown, part only)
VH: QVQLQQSGAELAKPGSSVKISCKASGYTFTSYYISWIKQTTGQGLEYIGYINTGSGGTNYNEKFKGKATLTVDKSSSTAFMQLSSLTPDDSAVYYCAREGTFYSGDVGYWYFDFWGPGSMVTVSS
B1 was tested. Which Kd [1] did it give?
Its Kd is 838 nM.

And the koff [1]?
Its koff is 0.000331 s⁻¹.

What about the kon [1] of the same binder?
The kon was 395 M⁻¹ s⁻¹.

And the Kd [2]?
The Kd was 3 nM.

What about the koff [2] of the same binder?
Its koff is 0.000177 s⁻¹.

What about the kon [2] of the same binder?
The kon was 59000 M⁻¹ s⁻¹.

And the Kd [3]?
The Kd was 3 nM.

What about the Kd [4] of the same binder?
Its Kd is 840 nM.

What about the reduction of proliferation of ConA-stimulated CD4+ T cells, mouse splenocytes [5] of the same binder?
The reduction of proliferation of ConA-stimulated CD4+ T cells, mouse splenocytes was 4%.
